Experimental data as given in PMC2175287 (The Journal of Cell Biology, 2000).

Columns and labels:
Mtr10p = Mtr10p (UniProt Q99189); assay: GST pull-down, S-tag blot, no extract; details: reference: mock-phosphorylated GST-Npl3p; sites S411
Mtr10-Protein A = target: T1, Mtr10-Protein A (S. cerevisiae, UniProt Q99189 1-972); assay: co-IP
T1 sequence (looked up): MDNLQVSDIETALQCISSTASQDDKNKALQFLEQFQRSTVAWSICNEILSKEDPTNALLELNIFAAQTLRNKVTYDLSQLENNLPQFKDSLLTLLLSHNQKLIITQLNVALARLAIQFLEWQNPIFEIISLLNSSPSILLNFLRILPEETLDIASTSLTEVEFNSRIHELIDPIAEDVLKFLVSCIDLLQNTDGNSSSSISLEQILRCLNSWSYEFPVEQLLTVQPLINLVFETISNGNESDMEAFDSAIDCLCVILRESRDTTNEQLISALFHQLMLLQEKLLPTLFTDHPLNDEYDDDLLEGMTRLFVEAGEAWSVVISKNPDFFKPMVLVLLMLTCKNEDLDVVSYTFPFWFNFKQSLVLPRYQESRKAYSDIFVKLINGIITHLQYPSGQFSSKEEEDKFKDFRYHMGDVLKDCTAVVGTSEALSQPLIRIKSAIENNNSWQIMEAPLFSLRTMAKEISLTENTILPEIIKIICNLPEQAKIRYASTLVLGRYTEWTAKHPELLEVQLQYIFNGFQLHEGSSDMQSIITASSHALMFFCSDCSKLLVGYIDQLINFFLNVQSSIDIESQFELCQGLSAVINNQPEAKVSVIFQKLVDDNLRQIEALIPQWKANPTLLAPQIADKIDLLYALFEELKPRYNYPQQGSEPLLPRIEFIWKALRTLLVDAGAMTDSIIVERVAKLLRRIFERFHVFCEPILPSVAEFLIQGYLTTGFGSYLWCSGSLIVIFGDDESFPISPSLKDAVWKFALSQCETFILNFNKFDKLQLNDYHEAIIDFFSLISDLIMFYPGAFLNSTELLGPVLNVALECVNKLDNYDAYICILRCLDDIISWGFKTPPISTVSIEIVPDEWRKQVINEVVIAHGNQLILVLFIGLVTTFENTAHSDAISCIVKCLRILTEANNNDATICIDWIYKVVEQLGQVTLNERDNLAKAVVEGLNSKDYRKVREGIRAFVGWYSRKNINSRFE

[1] = target: T2, in vitro-translated 35S-labeled Mtr10p (S. cerevisiae, UniProt Q99189 1-972, 35S-labeled)
T2 sequence (looked up): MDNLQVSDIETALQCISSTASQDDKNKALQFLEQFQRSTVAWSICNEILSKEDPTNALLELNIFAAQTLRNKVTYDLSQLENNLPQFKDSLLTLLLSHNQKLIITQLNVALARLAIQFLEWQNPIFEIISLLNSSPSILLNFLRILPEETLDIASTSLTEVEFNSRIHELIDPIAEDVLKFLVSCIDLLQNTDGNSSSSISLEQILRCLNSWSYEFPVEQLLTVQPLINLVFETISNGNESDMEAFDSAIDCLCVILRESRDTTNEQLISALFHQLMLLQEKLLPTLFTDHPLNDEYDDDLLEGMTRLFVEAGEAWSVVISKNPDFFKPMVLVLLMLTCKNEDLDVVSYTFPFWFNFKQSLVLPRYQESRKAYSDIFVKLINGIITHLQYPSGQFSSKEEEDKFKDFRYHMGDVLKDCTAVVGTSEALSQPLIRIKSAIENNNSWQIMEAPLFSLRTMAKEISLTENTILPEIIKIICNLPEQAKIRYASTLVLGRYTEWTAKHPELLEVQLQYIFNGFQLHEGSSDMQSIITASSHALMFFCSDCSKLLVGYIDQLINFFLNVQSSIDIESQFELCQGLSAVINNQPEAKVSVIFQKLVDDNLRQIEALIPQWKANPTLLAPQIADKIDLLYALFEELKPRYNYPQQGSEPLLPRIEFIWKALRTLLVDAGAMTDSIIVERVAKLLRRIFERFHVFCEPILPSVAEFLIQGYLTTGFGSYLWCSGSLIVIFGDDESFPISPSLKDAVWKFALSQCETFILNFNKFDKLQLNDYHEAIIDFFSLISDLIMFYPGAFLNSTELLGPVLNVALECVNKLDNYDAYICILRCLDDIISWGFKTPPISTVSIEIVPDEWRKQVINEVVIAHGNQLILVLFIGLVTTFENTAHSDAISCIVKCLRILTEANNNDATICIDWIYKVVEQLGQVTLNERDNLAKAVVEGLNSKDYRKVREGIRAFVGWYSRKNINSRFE

In the case of “Npl3p (from UniProt Q01560) Sky1p-phosphorylated GST-Npl3p”, the “binding against the reference” value (Mtr10p) is reported as “stronger”.

B1: Npl3p (endogenous) (natural protein, S. cerevisiae (endogenous in yeast), UniProt Q01560 1-414, looked up)
chain: MSEAQETHVEQLPESVVDAPVEEQHQEPPQAPDAPQEPQVPQESAPQESAPQEPPAPQEQNDVPPPSNAPIYEGEESHSVQDYQEAHQHHQPPEPQPYYPPPPPGEHMHGRPPMHHRQEGELSNTRLFVRPFPLDVQESELNEIFGPFGPMKEVKILNGFAFVEFEEAESAAKAIEEVHGKSFANQPLEVVYSKLPAKRYRITMKNLPEGCSWQDLKDLARENSLETTFSSVNTRDFDGTGALEFPSEEILVEALERLNNIEFRGSVITVERDDNPPPIRRSNRGGFRGRGGFRGGFRGGFRGGFSRGGFGGPRGGFGGPRGGYGGYSRGGYGGYSRGGYGGSRGGYDSPRGGYDSPRGGYSRGGYGGPRNDYGPPRGSYGGSRGGYDGPRGDYGPPRDAYRTRDAPRERSPTR
With B1 the “fold reduction of co-precipitated Npl3p in sky1Δ against wild-type yeast” value (Mtr10-Protein A) was 3 fold.

B2: GST-Npl3p phosphorylated by Sky1p (natural protein, S. cerevisiae, UniProt Q01560 1-414, looked up)
chain: MSEAQETHVEQLPESVVDAPVEEQHQEPPQAPDAPQEPQVPQESAPQESAPQEPPAPQEQNDVPPPSNAPIYEGEESHSVQDYQEAHQHHQPPEPQPYYPPPPPGEHMHGRPPMHHRQEGELSNTRLFVRPFPLDVQESELNEIFGPFGPMKEVKILNGFAFVEFEEAESAAKAIEEVHGKSFANQPLEVVYSKLPAKRYRITMKNLPEGCSWQDLKDLARENSLETTFSSVNTRDFDGTGALEFPSEEILVEALERLNNIEFRGSVITVERDDNPPPIRRSNRGGFRGRGGFRGGFRGGFRGGFSRGGFGGPRGGFGGPRGGYGGYSRGGYGGYSRGGYGGSRGGYDSPRGGYDSPRGGYSRGGYGGPRNDYGPPRGSYGGSRGGYDGPRGDYGPPRDAYRTRDAPRERSPTR
modifications: phosphoserine at 411 (single site of Sky1p)
With B2 the Kd [1] was 30 nM.
